Measurements as given in PMC7719796, “Structural Insights on Tiny Peptide Nucleic Acid (PNA) Analogues of miRNA-34a: An in silico and Experimental Integrated Approach” (Frontiers in Chemistry, 2020).

Test system: Kelly neuroblastoma cells
Assay: PNA cellular uptake assay (fluorescence of cell lysate)
Type: cell-based, Human
Settings: 0.1 μM in Opti-MEM, no transfecting agent, 24 h incubation (text; method: 6 h at 37°C, then 48 h), fluorescence of cell lysate and media 485/535 nm, 3 biological repeats and 4 technical repeats
Text: Cellular uptake of the described tiny PNA sequence was studied in vitro on Human Kelly neuroblastoma cell line, without the use of any transfection agents, and compared to previously reported results from our group (Piacenti et al., [2019]). In particular, the PNA oligomers were provided with short peptide carriers at both termini consisting of a trilysines segment at the C-terminus and one lysine at the N-terminus (FITC-PNA2) or Cys-Lys dipeptide at the N-terminus (FITC-PNA3) (Table 1), that was previously reported by Fabani et al. ([2010]) to promote cellular uptake for PNA single strands. Kelly cells were incubated for 24 h with FITC-PNA2 or FITC-PNA3 sequences individually, at minimal 0.1 μM concentration in optiMEM, without the use of any transfecting agent and using a protocol for miRNA mimics delivery, which was previously optimized (Curtin, [2018]). Both peptide carriers were able to provide internalization of PNA sequences albeit to a different extent (Figure 9A); uptake was slightly higher than 3% for FITC-PNA2 and almost 5% for FITC-PNA3.
Kelly cells were seeded in 6-well plates in duplicates at 0.5 × 10^6 density. […] The fluorescence of the cell lysate and of the media was read in a dual beam plate reader, at 485/535 nm.

| Substance | Cellular uptake (internalization) |
| --- | --- |
| FITC- Ahx -K- tggcagtg—KKK-NH2 [FITC-PNA2, PNA1 with K at N-terminus and KKK at C-terminus, Ahx linker and FITC fluorescent tag] | higher than 3% |
| FITC- Ahx -CK - tggcagtg—KKK- NH2 [FITC-PNA3, PNA1 with Cys-Lys at N-terminus and KKK at C-terminus, FITC-Ahx; reported in previous work, used for comparison] | ~5% |
